Source: patent US9539367B2, “Gallium inhibits biofilm formation” (priority 2003, dated 2017)

B1: lactoferrin: Fe-binding protein (protein, UniProt P02788 20-710, looked up)
Lactotransferrin: GRRRSVQWCAVSQPEATKCFQWQRNMRKVRGPPVSCIKRDSPIQCIQAIAENRADAVTLDGGFIYEAGLAPYKLRPVAAEVYGTERQPRTHYYAVAVVKKGGSFQLNELQGLKSCHTGLRRTAGWNVPIGTLRPFLNWTGPPEPIEAAVARFFSASCVPGADKGQFPNLCRLCAGTGENKCAFSSQEPYFSYSGAFKCLRDGAGDVAFIRESTVFEDLSDEAERDEYELLCPDNTRKPVDKFKDCHLARVPSHAVVARSVNGKEDAIWNLLRQAQEKFGKDKSPKFQLFGSPSGQKDLLFKDSAIGFSRVPPRIDSGLYLGSGYFTAIQNLRKSEEEVAARRARVVWCAVGEQELRKCNQWSGLSEGSVTCSSASTTEDCIALVLKGEADAMSLDGGYVYTAGKCGLVPVLAENYKSQQSSDPDPNCVDRPVEGYLAVAVVRRSDTSLTWNSVKGKKSCHTAVDRTAGWNIPMGLLFNQTGSCKFDEYFSQSCAPGSDPRSNLCALCIGDEQGENKCVPNSNERYYGYTGAFRCLAENAGDVAFVKDVTVLQNTDGNNNEAWAKDLKLADFALLCLDGKRKPVTEARSCHLAMAPNHAVVSRMDKVERLKQVLLHQQAKFGRNGSDCPDKFCLFQSETKNLLFNDNTECLARLHGKTTYEKYLGPQYVAGITNLKKCSTSPLLEACEFLRK
B2: conalbumin: Fe chelator (protein, UniProt P02789 20-705, looked up)
Ovotransferrin: APPKSVIRWCTISSPEEKKCNNLRDLTQQERISLTCVQKATYLDCIKAIANNEADAISLDGGQAFEAGLAPYKLKPIAAEVYEHTEGSTTSYYAVAVVKKGTEFTVNDLQGKTSCHTGLGRSAGWNIPIGTLLHRGAIEWEGIESGSVEQAVAKFFSASCVPGATIEQKLCRQCKGDPKTKCARNAPYSGYSGAFHCLKDGKGDVAFVKHTTVNENAPDQKDEYELLCLDGSRQPVDNYKTCNWARVAAHAVVARDDNKVEDIWSFLSKAQSDFGVDTKSDFHLFGPPGKKDPVLKDLLFKDSAIMLKRVPSLMDSQLYLGFEYYSAIQSMRKDQLTPSPRENRIQWCAVGKDEKSKCDRWSVVSNGDVECTVVDETKDCIIKIMKGEADAVALDGGLVYTAGVCGLVPVMAERYDDESQCSKTDERPASYFAVAVARKDSNVNWNNLKGKKSCHTAVGRTAGWVIPMGLIHNRTGTCNFDEYFSEGCAPGSPPNSRLCQLCQGSGGIPPEKCVASSHEKYFGYTGALRCLVEKGDVAFIQHSTVEENTGGKNKADWAKNLQMDDFELLCTDGRRANVMDYRECNLAEVPTHAVVVRPEKANKIRDLLERQEKRFGVNGSEKSKFMMFESQNKDLLFKDLTKCLFKVREGTTYKEFLGDKFYTVISSLKTCNPSDILQMCSFLEGK

Test system: P. aeruginosa biofilm
Experiment: Biofilm formation of GFP-labeled P. aeruginosa in continuous culture flow cells
Format: cell-based
Conditions: for effect on P. aeruginosa biofilm formation: Fe chelation, concentrations that did not alter growth (lactoferrin 20 μg ml)

| Molecule | effect on P. aeruginosa biofilm formation | effect on established biofilm (once the biofilm was established) |
| --- | --- | --- |
| B1 | profoundly inhibited biofilm formation | unable to alter the biofilm |
| B2 | duplicated |  |
